Laboratory results as given in PMC7867571.

Target: H. influenzae VapXD2 heterotrimer (VapD homodimer with one VapX) (Haemophilus influenzae (non-typeable, strain 86-028NP)) (UniProt P71351)
Assay: crystal structure

## H. influenzae VapXD2 heterotrimer (VapD homodimer with one VapX) (from UniProt P71351 1-91; Q4QN94 1-63) (complex)
  stoichiometry N: 3
